Experiment [1] in a line: ELISA for specific binding of the antibody to immobilized biotinylated theophylline. The following applies: biotinylated theophylline 500 ng/mL on streptavidin plates; antibody 50-3000 ng/mL; anti-huFc Fab-HRP/ABTS, absorbance 405 nm. How it is done: To determine specific binding of the antibody by ELISA, Streptavidin coated ELISA plates were loaded with biotinylated theophylline (500 ng/mL in PBS) and incubated for 30 minutes at room temperature. After washing twice to remove unbound antigen, antibodies were added at concentrations between 50 and 3000 ng/mL (in PBS) and incubated for 30 minutes. After washing twice, bound antibody was detected with an anti-huFc Fab-HRP conjugate and ABTS substrate (with absorbance measurement at 405 nm).
For orientation: In an ELISA, binding on a coated surface is turned into a signal by an enzyme label.

Experiment [2] is described as follows: Surface-plasmon-resonance (SPR) analysis of the affinity of antibody binding to theophylline. The source says:
FIG. 3 Binding profiles of the theophylline binding antibodies in SPR experiments.
To determine the affinity of specific binding of the antibody to theophylline, surface-plasmon-resonance (SPR) analyses were applied.

Setting [3] is: read-out: calculated affinities (KD).

Where a chain is given by its changes, count along the chain named. Names and notes keep the numbering of the source. Where two headings read alike, the source gives them in different places.

As usually defined, the Kd is the constant that tells how readily two partners part at equilibrium.

B1: humanized antibody: humanized anti-theophylline antibody; VH SEQ ID NO: 12 (V71R), VL SEQ ID NO: 16 (R46L); human IgG1/kappa constant regions (antibody, V domains shown)
VH: QVQLQESGPGLVKPSQTLSLTCTVSGYSITSDYAWNWIRQHPGKGLEWIGYIRYSGHTGYNPSLKSRVTISRDTSKNQFSLKLSSVTAADTAVYYCARWVDYFDYWGQGTLVTVSS
VL: DVVMTQSPLSLPVTLGQPASISCRSSQSIVYNNRYTYLEWFQQRPGQSPRLLIYGVSNRFSGVPDRFSGSGSGTDFTLKISRVEAEDVGVYYCYQGTHAPYTFGQGTKLEIK
modifications: human IgG1/kappa constant regions; humanized VH; humanized VL
For the molecule B1, the “binding to theophylline immobilized on the ELISA plate” value in experiment [1] was “binds specifically and dose dependent to theophylline”. This molecule came in with a ka in experiment [2] of 1.31E+05. Also, in experiment [2], the kd amounted to 0.002214. Besides, the Kd in experiment [2] (read-out: KD) was 17 nM; in experiment [2] (setting [3]), 17 nM; in experiment [2] (unit inferred, read-out: KD) it was 17 nM.

B2: murine antibody: murine anti-theophylline antibody, IgG1 kappa, from mouse hybridoma; VH SEQ ID NO: 04, VL SEQ ID NO: 08 (antibody, listed as Mus musculus, V domains shown)
VH: DVQLQESGPGLVKPSQSLSLTCAVTGYSITSDYAWNWIRQFPGNRLEWMGYIRYSGHTGYNPSLKSRISITRDTFKNQFFLQFNSVTTEDTATYYCARWVDYFDYWGQGTTLTVSS
VL: B1 VL with T14S, Q17D, P18Q, Q42V, R44K, P49L, R50K, V88M, Q105G
In experiment [2], B2 gave a ka of 1.12E+05. The molecule also returned a kd in experiment [2] of 0.00228. For the same molecule, the Kd was 20.3 nM in experiment [2] (read-out: KD); 20 nM in experiment [2] (setting [3]); 20.3 nM in experiment [2] (unit inferred, read-out: KD).

Source of the values: patent US9925272B2, “Anti-theophylline antibodies and methods of use” (Hoffmann-La Roche Inc., priority 2012, dated 2018).
